Assay results as given in patent publication US20140004107A1 (published 2014).

T1: human ST2 (SPR analyte) (human, UniProt Q01638 19-322)
T1 construct: The ST2 reagent injected in SPR; leader is 1-18; also called hu ST2
T1 sequence: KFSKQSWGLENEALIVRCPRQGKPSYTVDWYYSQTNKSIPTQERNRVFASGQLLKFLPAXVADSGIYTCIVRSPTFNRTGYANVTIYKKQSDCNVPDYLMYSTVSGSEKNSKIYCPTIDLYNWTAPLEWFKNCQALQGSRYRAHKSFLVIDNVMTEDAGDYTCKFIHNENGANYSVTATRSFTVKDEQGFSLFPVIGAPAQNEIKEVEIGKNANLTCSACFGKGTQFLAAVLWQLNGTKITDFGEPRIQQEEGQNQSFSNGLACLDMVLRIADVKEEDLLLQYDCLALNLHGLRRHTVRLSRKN

T2: cynomolgus monkey ST2 (SPR analyte) (cynomolgus monkey, UniProt Q01638 19-322 (human entry))
T2 construct: The cyno ST2 reagent injected in SPR; leader is 1-18; also called cy ST2
T2 chain: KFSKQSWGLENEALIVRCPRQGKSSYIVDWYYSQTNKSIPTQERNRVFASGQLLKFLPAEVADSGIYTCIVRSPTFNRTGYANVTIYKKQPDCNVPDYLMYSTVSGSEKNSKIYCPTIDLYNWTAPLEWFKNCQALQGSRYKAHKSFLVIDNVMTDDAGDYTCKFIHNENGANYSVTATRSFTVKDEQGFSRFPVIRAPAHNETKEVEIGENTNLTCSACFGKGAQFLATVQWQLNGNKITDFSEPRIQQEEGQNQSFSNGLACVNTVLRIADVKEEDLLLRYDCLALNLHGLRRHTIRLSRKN


Key:
human ST2 (SPR analyte) = target: T1, human ST2 (SPR analyte); test: SPR ProteOn XPR-36, captured antibody, ST2 analyte, 25 C
[1] = target: T2, cynomolgus monkey ST2 (SPR analyte); test: as above

Kd (human ST2 (SPR analyte)) [nM] | Kd [1] [nM] | Binder
0.0602 | 0.0558 | Ab32 (antibody, human IgG2, kappa, V domains shown, fully human anti-ST2 antibody) VH: EVQLVESGGGLVQPGGSLRLSCAASGFTFSTFDMHWVRQATGKGLEWVSSIDTEGDTYYSGSVKGRFTISRENARNSLYLQMNSLRAGDTAVYYCTRGEDWSDDDYYYGLDVWGQGTTVTVSS VL: NIVMTQTPLSLSVTPGQPASISCKSSQSLLHSDGKTYLFWYLQKPGQPPQLLIYGVSNRFSGVPDRFSGSGSGTDFTLKISRVEAEDVGVYYCMQSLQLFTFGPGTKVEIKR
0.0844 | 0.0776 | Ab33 (antibody, human IgG2, kappa, V domains shown, fully human anti-ST2 antibody) VH: EVQLVESGGGLVQPGGSLRLSCAASGFTFSTFDMHWVRQVPGKGLEWISSIDTEGDTYYPGSVKGRFTISRENARNSLYLQMNSLRAGDTAVYYCTRGEDWSDDDYYYGLDVWGQGTTVTVSS VL: NIVMTQTPLSLSVTPGQPASISCKSSQSLLHSDGKTYLFWYLQKPGQPPQLLIYGVSNRFSGVPDRFSGSGSGTDFTLKISRVEAEDVGVYSCMQSLQLFTFGPGTKVDIKR
